Here are results for 19 molecules from patent US20250320252A1 (Scripps Research, published 2025).

Assay in all cases: cell-based or functional assay
The target in test [1] is T1, human GLP-1 receptor (human, UniProt P43220 24-463).
In test [2] the target is T2, human GIP receptor (human, UniProt P48546 22-466).
T2 sequence (looked up): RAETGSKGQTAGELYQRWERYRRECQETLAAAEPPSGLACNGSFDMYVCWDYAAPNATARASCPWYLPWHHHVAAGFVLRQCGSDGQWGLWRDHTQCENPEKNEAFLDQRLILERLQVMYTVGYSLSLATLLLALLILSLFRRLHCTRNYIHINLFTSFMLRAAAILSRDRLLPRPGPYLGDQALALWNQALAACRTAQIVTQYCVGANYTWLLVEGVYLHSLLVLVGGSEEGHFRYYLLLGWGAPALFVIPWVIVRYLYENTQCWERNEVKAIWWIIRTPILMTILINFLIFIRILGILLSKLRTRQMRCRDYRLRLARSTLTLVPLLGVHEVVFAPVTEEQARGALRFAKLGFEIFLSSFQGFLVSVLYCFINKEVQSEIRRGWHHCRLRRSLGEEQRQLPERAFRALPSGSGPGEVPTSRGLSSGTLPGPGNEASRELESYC

Test [3] deals with T1, human GLP-1 receptor. The source holds these as a separate data set.
For test [4], the target named is T2, human GIP receptor. This is another data set of the same source.
Test [5] deals with T2, human GIP receptor. This is another data set of the same source.
In test [6] the target is T2, human GIP receptor. This is another data set of the same source.
Test [7] has as its target T1, human GLP-1 receptor. The source holds these as a separate data set.
For test [8], the target named is T1, human GLP-1 receptor. This is another data set of the same source.

Like-named read-outs stand apart in the source and are kept apart here. Bridge positions count the residues as written; N and C are the ends. Square brackets hold non-standard residues; d marks the D form. Ends that are not written are not given here. C20L5A = not defined here; Nle = CCCC[C@H](N)C(=O)O; L5A = not defined here; K4 = not defined here; K5 = not defined here; Aib = CC(C)(N)C(=O)O

Take Y[Aib]EGTYTSDYSIYCDKQAA[Aib]CFVNWLIAGGPSSGAPPPS-NH2 (linker 14-21 via C20L5A; not fully specified; reading uncertain) [6Y, 27I, C(14-21)-C20L5A]: in the test with human GLP-1 receptor [1], the “EC50 of receptor-mediated cAMP synthesis, GLP1R (nM), 02/19” value (shortened to “EC50 … GLP1R (nM), 02/19”) was 0.04 nM; the “EC50 of receptor-mediated cAMP synthesis, GLP1R (nM), 3/25” value (“EC50 … (nM), 3/25” below) stood at 0.07 nM; the “EC50 of receptor-mediated cAMP synthesis, GLP1R (nM), 03/26” value (shortened to “EC50 … GLP1R (nM), 03/26”) was determined as 0.07 nM; the “EC50 of receptor-mediated cAMP synthesis, GLP1R (nM), average” value (“EC50 … GLP1R (nM), average” below) turned out to be 0.06 nM. Further, in the test with human GIP receptor [2], the “EC50 of receptor-mediated cAMP synthesis, GIPR (nM), 02/19” value (“EC50 … GIPR (nM), 02/19” below) came out at 0.5 nM; the “EC50 of receptor-mediated cAMP synthesis, GIPR (nM), 03/25” value (“EC50 … 03/25” for short) came out at 0.58 nM; the “EC50 of receptor-mediated cAMP synthesis, GIPR (nM), 03/26” value (shortened to “EC50 … GIPR (nM), 03/26”) came out at 0.6 nM; the “EC50 of receptor-mediated cAMP synthesis, GIPR (nM), average” value (shortened to “EC50 … GIPR (nM), average”) is 0.56 nM.

Take H-Y[Aib]EGTFHSDYDIYKDKQAA[Nle]KFVAWLLAGGPSSGAPPPS-NH2 (linker 14-21 via K5; not fully specified; reading uncertain) [ZA-42 - K5]: the “EC50 [nM] of receptor-mediated cAMP synthesis” value (“EC50 [nM]” for short) with human GLP-1 receptor [3] is about 13700 nM; with human GIP receptor [4], 303 nM.

Take Y[Aib]EGTFTSDYSIYCDKQAA[Aib]CFVNWLLAGGPSSGAPPPS-NH2 (linker 14-21 via L5A; not fully specified; reading uncertain) [mCMC759 (C(14-21)-L5A)]: the “EC50 [nM]” value in the test with human GIP receptor [5] and in the test with human GIP receptor [6] was 0.03 nM in each case.

For Y[Aib]EGTFTSDYSIYLDKCAQ[Aib]AFVCWLIAQGPSSGAPPPS-NH2 (linker 17-24 via C20L5A; not fully specified; reading uncertain) [19Q, 21A, 27I, 29Q, C(17-24) - C20L5A], the “EC50 [nM]” value with human GIP receptor [6] is 0.02 nM.

As for Y[Aib]EGTFTSDYSIYCDKQAA[Aib]CFVNWLIAGGPSSGAPPPS-NH2 (linker 14-21 via C20L5A; not fully specified; reading uncertain) [mCMV266 (27I, C(14-21)-C20L5A)], the “EC50 [nM]” value with human GLP-1 receptor [7] came to 0.05 nM. Also, the “EC50 [nM]” value with human GIP receptor [5] is 0.07 nM. In the test with human GLP-1 receptor [1], the “EC50 … GLP1R (nM), 02/19” value came out at 0.03 nM; the “EC50 … (nM), 3/25” value worked out at 0.05 nM; the “EC50 … GLP1R (nM), 03/26” value stood at 0.06 nM; the “EC50 … GLP1R (nM), average” value worked out at 0.05 nM. In the test with human GIP receptor [2], the “EC50 … GIPR (nM), 02/19” value came out at 0.08 nM; the “EC50 … 03/25” value was 0.06 nM; the “EC50 … GIPR (nM), 03/26” value was determined as 0.06 nM; the “EC50 … GIPR (nM), average” value is 0.07 nM.

For the molecule Y[Aib]EGTYTSDYSIYLDKCAA[Aib]EFVCWLIAGGPSSGAPPPS-NH2 (linker 17-24 via C20L5A; not fully specified; reading uncertain) [6Y, 27I, C(17-24)-C20L5A], in the test with human GLP-1 receptor [1], the “EC50 … GLP1R (nM), 02/19” value was found to be 0.05 nM; the “EC50 … (nM), 3/25” value was found to be 0.07 nM; the “EC50 … GLP1R (nM), 03/26” value was found to be 0.06 nM; the “EC50 … GLP1R (nM), average” value was found to be 0.06 nM. Moreover, in the test with human GIP receptor [2], the “EC50 … GIPR (nM), 02/19” value is 0.27 nM; the “EC50 … 03/25” value stood at 0.27 nM; the “EC50 … GIPR (nM), 03/26” value amounted to 0.25 nM; the “EC50 … GIPR (nM), average” value is 0.26 nM.

In the case of H-Y[Aib]EGTFT[dS]DY[dS]IYKDKQAA[Nle]KFVAWLLAGGPSSGAPPPS-NH2 (linker 14-21 via K5; not fully specified; reading uncertain) [ZA-43 - K5], the “EC50 [nM]” value came to 3.74 nM with human GLP-1 receptor [3] and 15.7 nM with human GIP receptor [4].

With Y[Aib]EGTFISDVSIYCDKQAA[Aib]CFVNWLIAGGPSSGAPPPS-NH2 (linker 14-21 via C20L5A; not fully specified; reading uncertain) [7I, 10V, 27I, C(14-21) - C20L5A], the “EC50 [nM]” value in the test with human GLP-1 receptor [7] was about 13700 nM; with human GIP receptor [5], 303 nM.

For Y[Aib]EGTFTSDYSIYLDKCAA[Aib]EFVCWLLAGGPSSGAPPPS-NH2 (linker 17-24 via C20L5A; not fully specified; reading uncertain) [C(17-24)-C20L5A], in the test with human GLP-1 receptor [1], the “EC50 … GLP1R (nM), 02/19” value turned out to be 0.07 nM and the “EC50 … (nM), 3/25” value turned out to be 0.1 nM. Further, in the test with human GIP receptor [2], the “EC50 … GIPR (nM), 02/19” value turned out to be 0.04 nM; the “EC50 … 03/25” value worked out at 0.02 nM; the “EC50 … GIPR (nM), 03/26” value turned out to be 0.03 nM; the “EC50 … GIPR (nM), average” value stood at 0.03 nM. Moreover, the “EC50 [nM]” value with human GLP-1 receptor [8] was found to be 0.11 nM. Besides, the “EC50 [nM]” value with human GIP receptor [6] came out at 0.05 nM.

Turning to H-Y[Aib]EGTFHSDYDIYKDKQAA[Nle]KFVAWLLAGGPSSGAPPPS-NH2 (linker 14-21 via K4; not fully specified; reading uncertain) [ZA-42 - K4], the “EC50 [nM]” value with human GLP-1 receptor [3] came out at 18.8 nM; with human GIP receptor [4], 20.4 nM.

Regarding Y[Aib]EGTFTSDYSIYKDKQAA[Aib]KFVNWLLAGGPSSGAPPPS-NH2 (bridge 14-21 via K5; reading uncertain) [mCLZ715], the “EC50 [nM]” value with human GLP-1 receptor [3] and with human GIP receptor [4] was 0.02 nM each time.

As for Y[Aib]EGTFISDVSIYCDKQAA[Aib]CFVNWLIAGGPSSGAPPPS-NH2 (linker 14-21 via L5A; not fully specified; reading uncertain) [7I, 10V, 27I, C(14-21) - L5A], the “EC50 [nM]” value in the test with human GLP-1 receptor [7] is 83.9 nM; with human GIP receptor [5] it was 12.6 nM.

As to H-Y[Aib]EGTFHSDYDIYKDKQAA[Aib]KFVQWLLAGGPSSGAPPPS-NH2 (bridge 14-21 via K5; reading uncertain) [ZA-41 - K5], the “EC50 [nM]” value stood at 83.9 nM with human GLP-1 receptor [3] and 12.6 nM with human GIP receptor [4].

Consider H-Y[Aib]EGTFHSDYDIYKDKQAA[Aib]KFVQWLLAGGPSSGAPPPS-NH2 (bridge 14-21 via K4; reading uncertain) [ZA-41 - K4], for which the “EC50 [nM]” value worked out at 13.8 nM with human GLP-1 receptor [3] and 5.31 nM in the test with human GIP receptor [4].

As to Y[Aib]EGTFTSDYSIYCDKQAA[Aib]CFVNWLLAGGPSSGAPPPS-NH2 (linker 14-21 via C20L5A; reading uncertain) [C(14-21)-C20L5A], the “EC50 [nM]” value with human GIP receptor [5] amounted to 0.05 nM. Moreover, in the test with human GIP receptor [2], the “EC50 … GIPR (nM), 02/19” value came out at 0.07 nM; the “EC50 … 03/25” value was determined as 0.04 nM; the “EC50 … GIPR (nM), 03/26” value turned out to be 0.04 nM; the “EC50 … GIPR (nM), average” value stood at 0.05 nM.

Take Y[Aib]EGTYTNDYSIYLDKCAA[Aib]EFVCWLIAGGPSSGAPPPS-NH2 (linker 17-24 via C20L5A; not fully specified; reading uncertain) [6Y, 8N, 27I, C(17-24)-C20L5A]: in the test with human GLP-1 receptor [1], the “EC50 … GLP1R (nM), 02/19” value was 0.06 nM; the “EC50 … (nM), 3/25” value stood at 0.11 nM; the “EC50 … GLP1R (nM), 03/26” value came out at 0.07 nM; the “EC50 … GLP1R (nM), average” value was 0.08 nM. Also, in the test with human GIP receptor [2], the “EC50 … GIPR (nM), 02/19” value stood at 2.48 nM; the “EC50 … GIPR (nM), 03/26” value came to 3.29 nM; the “EC50 … GIPR (nM), average” value turned out to be 2.88 nM.

Take Y[Aib]EGTFTSDYSIYLDKCAA[Aib]EFVCWLLAGGPSSGAPPPS-NH2 (linker 17-24 via L5A; not fully specified; reading uncertain) [C(17-24)-L5A]: the “EC50 [nM]” value was 0.11 nM with human GLP-1 receptor [8] and 0.05 nM with human GIP receptor [6].

On to H-Y[Aib]EGTFT[dS]DY[dS]IYKDKQAA[Nle]KFVAWLLAGGPSSGAPPPS-NH2 (linker 14-21 via K4; not fully specified; reading uncertain) [ZA-43 - K4], for which the “EC50 [nM]” value with human GLP-1 receptor [3] is 1.32 nM; with human GIP receptor [4], 11.3 nM.

For Y[Aib]EGTFTSDYSIYCDKQAA[Aib]CFVNWLIAGGPSSGAPPPS-NH2 (linker 14-21 via L5A; not fully specified; reading uncertain) [27I, C(14-21)-L5A], the figures for the “EC50 [nM]” value with human GLP-1 receptor [7] and with human GIP receptor [5] were 0.04 nM and 0.03 nM, respectively.
